# Test: soluble on expression in E. coli; label from the status in PepcDB or PDB records
row,Sequence,soluble on expression in E. coli
1,MRHSSYEHVPNRIIPPHIPIDARRGDFDRRPGPPVPSMRAAILGGSDPYHGFQPVVDTYNGPVVDNSRRRGFDKGPFGEDLTTMGRNEGRQPLLRHPRLDFEHIGGEMEIARSRSASPEIQVISARSVRDDRRRDKPRQRRSSRSRSRDRGDKDHRKPAASRRSDRESTYRERLGSSSGPAAAPDIIRDGMVWANDNYFEFLSFYIEVLNEKLRSSVDRDVKGIREIREVITPATEPEKDRIVLPPNFNRSDRERMLHCDTTITGLPTAIFFGSGYGPREHYAKYSAAKDFFDKCLKIRVMDDELHAAIGEWPRLDRTFKTQFKVNISKSVNAVILLIKRMANEQLPPGFMTMRTLPIDIIDRFKFLLRMVVADVYYQGTESSMAVPKALETGYNTQPYPPNQYPLDTDIRRPSERPSNGPSAEEAARVRDQEIKEQVARELEKRQKVMEQEIRAKILEEERARIQGEAEREKKLELMKAEEQKYQKEKEMKEFEEQQKKAMMTKQVEDDFNVMVEQLEKMFVEVRSKGLNHILDMIYGSATFKTIQLYSSTLTSLSFEQKQKLVQDLRSLLDSVTMGMKVAAVAQMSQAQNPIQGGLFQHQQQQQQPMMSGGGGFVSGVQVVPMQVPMQSYQMPQMQIHHQAFPQPQQLNTTPLLSSSVPMRRDEVRRVTVGDMRLRSLSRSEQRDLRVGNKIIAQDSKTGTWTLATVVKIREDRVTVSVANGTWKKDIDDLYKEDDGSLVY,not soluble
2,MSLQAAGNAPAKISMLLTDGAIGQITKPFPEGGPSAKEVWERETGIEIDIVGAPAEDIFKKVMQDVTTGGGTFDIYTGPWNSTGDLVSSGGAVNCSDFVAKYQPDWADPERGTPTPEMEKLLYTYAGDYYSFSLDGDFQTWFYLKGLYEDPRVQDAFLSETGVALKTPDTWEEVDRISKFFTGKDFGNGPMYGNGNLMSPFWGLATFYARFASMDFPNYHFFDEDGNPNLNSDLGIQCAEEHVRSFEWCPPDALTFTWAEAYATMWNLQIPHTAIYTNLVKFGDGYNADGTPKSKATGMIGSHLPVGRRFGDQLNRRSVLYYHITAWISSQSQHPEAVYLFLQWLSSTRTYTWMAGNPGGYFDPMQQANFKEPLVASTYHPYAMETIPQTIARSVPSINFAGQTALDNALDEEIQAAITGQKSAREAMDAAQSKWERIIKRQEGHHHHHH,not soluble
3,MTTLTAQQIACVYAWLAQLFSRELDDEQLTQIASAQMAEWFSLLKSEPPLTAAVNELENRIATLTVRDDARLELAADFCGLFLMTDKQAALPYASAYKQDEQEIKRLLVEAGMETSGNFNEPADHLAIYLELLSHLHFSLGEGTVPARRIDSLRQKTLTALWQWLPEFVARCRQYDSFGFYAALSQLLLVLVECDHQNR,soluble
4,MKINNKLVGERIQNIRLSHGDSMEKFGEKFNTSKGTVNNWEKGRNLPNKENLLKIASIGKMSVEELLYGDYNTYLHLKIMDLAPECIKNYDEYNSLHDDITNKALQIAQNTISKIDYQISDETIKKFIDLAIEQSRDLQGNLLKNNLSNFDYSLFGGTRNREYFYFGYRLTYKEKYLYTALLAILNESTKTIYIDDINTARFFNFFGNDIPNSSLKKIDYIAPSEIVSFSTYVRQRSKVIPKILEHILKSSFLLENIDVSGYTVNILEDQLTKHRTIKISKN,not soluble
5,MGSDKIHHHHHHMERTDDESNKQPVILPPMIRIAYCTPSLHIPGGVERVLTTKANYLAENGNYDIYILLTDGKGKPPCYTLSPKVKIIQLDIDFEELWELPLWKKVPVYLKKQRIYRRKLSAALSHLKPDITVSLLRREINFITSLKDGSKKIGELHVNRKNYRNFEKNESNFIKELFAKLWMKSLVRHLKKLDKFVVLSEEDRANWPELQNVKVISNPLPFQSGTFSDLNNKRITAAGRYTYQKGFDLLLEAWSKICNRHPDWELHIYGKGNKTTYQVLAGKWKLKNLFLENATPDMLCKYHESSIFVSSSRFEGFGMVIAEAMACGVPAVSFACPCGPKDIIRDGEDGLLVENGKTEELAEKINYLIENEQIRKEMGKKARINVQRFAEDVIMQQWIQLFNNLLNGTKQ,not soluble
6,MKGRTMNKPFITQAQLALYKYQPSSKYFGQSMAVIAQSEFVEFAKINKSENVIDCFSFFWNRRIKHDIWLISFSDNSEMVIKESLKDGHKIYKFEFCEIVDNCNFDDVFV,not soluble
7,MENTEKLKNSKEVIAYIAECFPNCFTLEGEAKPLKIGIFQDLADRLNDDPKVSKTQLRAALRQYTSSWRYLHGVKPGATRVDLDGNPCGELEEQHVEHAQAALAESKARVEARRKEQVKKVREEAKANKPKAKKPQQARRPQNAPKVEKKPVETRALAASELNVGNQVNVNMGKGNMAATIVEVNKEDVRVQLANGLQMVVKAEHLRA,not soluble
8,MGSDKIHHHHHHMTEEINYFWLNCGYNRWNHNEPLVGQTALFESGAHFNPTQGYRAFKKAKAGDQVIFYQVQTDSGLLGIGEIISVQSGAQNKIRVEFKFKETLKPLTTDYLKRSETLDFRMSNMRETLFNQIRESEFELIVSLGKGKSKIPRYFLLAETEAFEPGKNYTIFTHTFNGIKRNGYHFYTQLEVGDNIIIYNKYQNQSVIGIGEVSKHIHEKPPIPGRTNSTAIEIFYEKDIKPISLGHLNKHPKLKNLYFLQENAKQSIASMSQAQYDAILDMSMNNGIKHPFETVKKAELSTQNAEDDSLKPFVLLVVEQKGEGLKAAEELLQKTNANPVITSGHPDFTEDMLYGKYLPNESGALYYREGFITHLMPKKDKSYLVIDNFNRIDVDIFQTYINVLEGYEVTLPRYNKDGSMIKWSKNKDSFYHFNPNWHIVGITYDSIEKIKQKYSSQFLKYTRIVKVNHD,not soluble
9,MHTIPITTDSAASWDWPLQHNDGVVKVTNTSEKFEVGLDAGFFGPNDIDVKVNGIEIIIHLRHDNRPTEYGIVNREVHRTYKLPEDVDPSTVRSHLNSSGVLTITANKL,not soluble
10,MSSRQGGKMKPLKQKKKQQQDLDPEDIAFKEKQKADAAAKKALMANMKSGKPLVGGGIKKSGKK,soluble
11,MVKSAVLGFPRIGKNRELKKATEAYWSGKTSAEELLATAKQLRLEHWKLQKAQGVDIIPSNDFSLYDQIMDHSFSFNVIPPRYRLSGLSSLDTYFAMGRGMQRAATADKAAVDVPAGEMVKWFDSNYHFLRPEVSEETDFKLSSTKALDEFLEAKEAGIITRPVLVGPVTYLFIAKAAKGSSIKPIELLPKLLPVYVELIKKLTEAGAEYIQIDEPILTLDLPQEILASYKEAYETLGKIGKLILTTYFGSLQSNADVLKGLPIAGVHVDVVRAPENLDRALAVLGENQIISVGVVSGRNIWKTDFQKATAIIEKAISAVGSERVQVASSSSILHIPHSLSGEDQINPEIKRWFAFAVEKCAELAILTKAANDGPASVRAELEANAADCKARAESPITNVEAVRERQSKVTPQMHERKSPFETRYAKQQASLKLPLFPTTTIGSFPQTKEIRVTRNRFAKGLISQEEYDAFIRKEISDVVKFQEEVGLDVLVHGEPERNDMVQYFGERMEGFVFTVNGWVQSYGSRCVRPPIIVGDVYRPAPMTVKESQYAQSITSKPMKGMLTAPITILRWSFPRDDVHDSVQAQQIALGLRDEVLDLEKAGIKVIQCDEPALREGLPLRRAEWDEYLKWAIDAFRLATAAVQDDTQIHSHFCYSDFNDIFDAIQRLDADVVSIENSKSDMKLLNVLSRYTSCIGPGLFDIHSPRVPPVSEFKERIDAIVKHVPKDHLWLNPDCGLKTRGWPETTADLKNMIAAAREAREQYA,soluble
12,SLKPINYVPHFLCRISGEEINSISEIEFIKTLECLELSEGILRKINSLSADLTKDLHDCISLYKEQSISRVLINLKRDIFNMRFNRVQKYKLENISGFNHDKLNLWLNLAQEYQSTLHLMRETFKMEIQEKRGKLKQLFSNSEYIKAIQVSNTQLYENLLEYLQDNQSHPPKKMRNIEQSLINYLSRMIFKPTPFSSFTGLNYGFFSQEDSSFEINTKESKGHTRINMVYLKKIERMLLNRISIKNKCYVSLNQTINEEENYMFFRRGKDGTSQAFTGEAFIKIKKSELLKELIQYFEGISSMNIVEVVSFLSEKTNYETEALYNYLFKLEKMGVLDFSLGVSEQSDNYTKDLIENLLGIKDSLVEKSVSHLVEIEKIQAIFSESNYQKRYVLLKNLQEHIKKIYSLFDLKLESNDLTSLLFEDVSYKNTKIILNENQWKTHLDDFNLIKNLMPLFDDNILEKLSMNIIFKDIYGNKGAIDLLEFYREFNKYDKNLLWKKIRKNDTYLYLKKLRTEFYDYLETQINMGLDTIFLNKSWLKKFINKFPDLLKSKENYSFYFQIAYDNQDNRILVLNKIGPGLGKHFSRYGNLFLNSEYKENNRFINSLIEQYKKYDQNGGVLTDLNAVLGLNLNMHPNLLNYEITYPGCNPSKGINQVALKDIEVLYDSNSDQLKLYSKQYRQNVKLLPLGFLFPALSPSLYKFLCGFSESNGIEYSFWNKFLNEHNNNFSLLPRIMLGSVALDRRTWKINAKEIQKEFSKDTFETFINFHKWVKENQLPEDIFLRVANTMDAFSENELLNQDLGSWIAEIKQTKHRKPQYVNFNNYFHIDALRKIIKDVNNTVTIQEVYPHPDDVYYQKNSKKCVEFLVEVF,soluble
13,GSAEEWYFGKITRRESERLLLNPENPRGTFLVRESETTKGAYCLSVSDFDNAKGLNVKHYKIRKLDSGGFYITSRTQFSSLQQLVAYYSKHADGLCHRLTNVCPTSKEFIVTD,soluble
14,MGKSSNIVFDRIKEERQMLSFFKIFQRADLSSDCMRALPYSFISKVSEKDFSYKMVIRAQWGKTWDVEVSKNPTYYYIETRGWDLFVSDNALGQNEFITFTHRGNMVFHVNIYEQNGLEMRKPRKFQTMGPSSGIKKEEGENSLIDVKKEEESDESPGRAEFLVRKKKTEDSKSSKKKMTRNKVKKKSKSKSKQVLDGVPEFKITIRKSYLKFLAIPKHFVDDHIPNKSKIFTIRHPNGGSWKVLCLVREIRTIFSGGYSKLAREFPLMVGDKCTFKLIKPFEFVLLTSKKNREKMDQCMID,soluble
15,MSLRFGIGYSATMGVRPNMEDVITFQTYPNDQHLFGLFDGHQGNVAAATSAICLHNELLQNAVNAPDDQLPAAITNCYTAVNQKLKMIGTRDGCTAISAFIRKNKCYTVGIGDSRIVLVKKNSSKRLTVDYKPTMRSEYERLRKCGLTVNSEGRIGRKLAVARTLGDFWCEGPGLYVPPDVSSFEINEEEDLALIIACDGVWDVIQDDDAAEIVRNSENAQDAATTLRNVAFALGSKDNISAMIVFFDSKEGHHHHHH,soluble
16,MKKIPQISDAELEVMKVIWKHSSINTNEVIKELSKTSTWSPKTIQTMLLRLIKKGALNHHKEGRVFVYTPNIDESDYIEVKS,soluble
17,MAHHHHHHMESINRNNNINKNEIDNKINNNNNMDVPIEGNEKSQEGDIIGQFGVGFYSSFVVSNKVEVFTRSYDNNSSKGYHWVSYGNGTFTLKEVDNIPKGTKIICHLKDSCKEFSNIQNVQKIVEKFSSFINFPVYVLKKKKILQTRKDIEQNELNDHTQQNELNHHNDQNDHTQQNELNHHNDQNDHTQQNELNHHNDQNDHTQQNELNHHVEHHKNVVENKNDEYEKNMDNRTSDNIKPESLSKQNDYENMNQCNNEETVLNRTKELNEEHIVEEILVNKQKPLWCKDNVTEEEHRHFFHFLNKNKSYNEDNKSYLYNMLYKTDAPLSIKSVFYIPEEAPSRLFQQSNDIEISLYCKKVLVKKNADNIIPKWLYFVKGVIDCEDMPLNISRENMQDSSLINKLSRVVVSKILKTLEREADINEEKYLKFYKNYNYNLKEGVLEDSNKNHYKNSLMNLLRFYSINQNKFISLKQYVNNFRNNQKNIYYFSANDKNVALNSPYMEPFKKQNIDVLLLLEEIDEFVLMNLQTYKDAKFVSIDTSQNEDFDEAVLNTNKNDNEKKQSIFFNDEQKKELQAYFKQVLGSKCSDVKFSERLTTSPAVVTGFLSPTLRKVMKATMKNSDFNDNTNNSNNMNMFQNLPATLELNPSHTIVTSIYHLKNTNQEVAKLLVQQLYDNACIAAGILEDPRSLLSKLNELLLLTARYAYHYEKKDIQENTKDQPIDVKDNTMAIDNIVNTKENNTNDDSVMKEAQSSNL,not soluble
